US20180155451A1 (published 2018)

T1: FcγRIIa H (human, UniProt P12318 34-217)
T1 construct: extracellular domain; Soluble His-tagged extracellular domain expressed in FreeStyle293 cells; also called FcγRIIa type H; FcgRIIa H; not shown: His tag attached to the C terminus
T1 sequence (looked up): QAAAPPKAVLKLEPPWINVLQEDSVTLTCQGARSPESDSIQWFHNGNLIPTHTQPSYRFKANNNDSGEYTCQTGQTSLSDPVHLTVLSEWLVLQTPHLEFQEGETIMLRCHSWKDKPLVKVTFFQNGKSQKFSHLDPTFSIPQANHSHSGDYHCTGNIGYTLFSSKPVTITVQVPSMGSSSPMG

T2: FcγRIIb (human, UniProt P31994 43-217)
T2 construct: extracellular domain; Soluble His-tagged extracellular domain expressed in FreeStyle293 cells; also called FcgRIIb; 2b; not shown: His tag attached to the C terminus
T2 sequence (looked up): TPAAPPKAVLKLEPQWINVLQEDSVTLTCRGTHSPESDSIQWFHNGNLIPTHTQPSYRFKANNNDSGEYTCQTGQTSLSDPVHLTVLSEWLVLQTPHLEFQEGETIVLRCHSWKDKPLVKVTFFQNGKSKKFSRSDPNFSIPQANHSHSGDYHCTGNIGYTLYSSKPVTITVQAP

B1: GpH7-A5/GpH7-B3 variant A327_03V/GpL16-k0 (antibody, human IgG1, kappa)
heavy 1: not shown
heavy 2: not shown
light: DIVMTQSPLSLPVTPGEPASISCQASESLVHSNRNTYLHWYLQKPGQSPQLLIYKVSNRFSGVPDRFSGSGSGTDFTLKISRVEAEDVGVYYCSQNTHVPPTFGQGTKVEIERTVAAPSVFIFPPSDEQLKSGTASVVCLLNNFYPREAKVQWKVDNALQSGNSQESVTEQDSKDSTYSLSSTLTLSKADYEKHKVYACEVTHQGLSSPVTKSFNRGEC
notes: Heterodimerized anti-glypican-3 IgG1; mutation in the GpH7-B3 H chain only; also called He Ab
B2: GpH7-A5/GpH7-B3 variant I332_10E/GpL16-k0 (antibody, human IgG1, kappa)
heavy 1: not shown
heavy 2: not shown
light: B1 light
notes: as for B1
B3: GpH7-A5/GpH7-B3 variant N325_13S/GpL16-k0 (antibody, human IgG1, kappa)
heavy 1: not shown
heavy 2: not shown
light: B1 light
notes: as for B1
B4: GpH7-A5/GpH7-B3 variant A327_09D/GpL16-k0 (antibody, human IgG1, kappa)
heavy 1: not shown
heavy 2: not shown
light: B1 light
notes: as for B1
B5: GpH7-A5/GpH7-B3 variant L328_05P/GpL16-k0 (antibody, human IgG1, kappa)
heavy 1: not shown
heavy 2: not shown
light: B1 light
notes: as for B1
B6: GpH7-A5/GpH7-B3 variant A327_14T/GpL16-k0 (antibody, human IgG1, kappa)
heavy 1: not shown
heavy 2: not shown
light: B1 light
notes: as for B1
B7: GpH7-A5/GpH7-B3 variant L328_06M/GpL16-k0 (antibody, human IgG1, kappa)
heavy 1: not shown
heavy 2: not shown
light: B1 light
notes: as for B1
B8: GpH7-A5/GpH7-B3 variant A330_05P/GpL16-k0 (antibody, human IgG1, kappa)
heavy 1: not shown
heavy 2: not shown
light: B1 light
notes: as for B1
B9: GpH7-A5/GpH7-B3 variant A327_08L/GpL16-k0 (antibody, human IgG1, kappa)
heavy 1: not shown
heavy 2: not shown
light: B1 light
notes: as for B1
B10: GpH7-A5/GpH7-B3 variant A327_10E/GpL16-k0 (antibody, human IgG1, kappa)
heavy 1: not shown
heavy 2: not shown
light: B1 light
notes: as for B1
B11: GpH7-A5/GpH7-B3 variant L328_09D/GpL16-k0 (antibody, human IgG1, kappa)
heavy 1: not shown
heavy 2: not shown
light: B1 light
notes: as for B1
B12: GpH7-A5/GpH7-B3 variant L328_04F/GpL16-k0 (antibody, human IgG1, kappa)
heavy 1: not shown
heavy 2: not shown
light: B1 light
notes: as for B1
B13: GpH7-A5/GpH7-B3 variant L328_03V/GpL16-k0 (antibody, human IgG1, kappa)
heavy 1: not shown
heavy 2: not shown
light: B1 light
notes: as for B1
B14: GpH7-A5/GpH7-B3 variant L328_15Y/GpL16-k0 (antibody, human IgG1, kappa)
heavy 1: not shown
heavy 2: not shown
light: B1 light
notes: as for B1
B15: GpH7-A5/GpH7-B3 variant A327_18N/GpL16-k0 (antibody, human IgG1, kappa)
heavy 1: not shown
heavy 2: not shown
light: B1 light
notes: as for B1
B16: GpH7-A5/GpH7-B3 variant L328_10E/GpL16-k0 (antibody, human IgG1, kappa)
heavy 1: not shown
heavy 2: not shown
light: B1 light
notes: as for B1
B17: GpH7-A5/GpH7-B3 variant A327_07I/GpL16-k0 (antibody, human IgG1, kappa)
heavy 1: not shown
heavy 2: not shown
light: B1 light
notes: as for B1
B18: GpH7-A5/GpH7-B3 variant L328_07I/GpL16-k0 (antibody, human IgG1, kappa)
heavy 1: not shown
heavy 2: not shown
light: B1 light
notes: as for B1
B19: GpH7-A5/GpH7-B3 variant L328_20W/GpL16-k0 (antibody, human IgG1, kappa)
heavy 1: not shown
heavy 2: not shown
light: B1 light
notes: as for B1
B20: GpH7-A5/GpH7-B3 variant S324_01G/GpL16-k0 (heterodimerized antibody, He Ab) (antibody, human IgG1, kappa)
heavy 1: not shown
heavy 2: not shown
light: B1 light
notes: Mutation in one H chain only; also called S324_01G He Ab

biological target: T1, FcγRIIa H; assay: SPR (Biacore); He/Con_2aH divided by He/Con_2b (FcγRIIb) of the same antibody
Description: The heterodimerized antibodies He Abs in which one of the H chains was introduced with an alteration were assayed for their binding activities to each activating FcγR and inhibitory FcγR according to the method described in Example 4. […] The activating FcγRs in FIGS. 26, 27, 28, and 29 are FcγRIa, FcγRIIa (R), FcγRIIa (H), and FcγRIIIa, respectively.
(§1) Analysis of interaction between objective antibody and the FcγR was carried out using Biacore T100 (GE Healthcare). HBS-EP+ (GE Healthcare) was used as the running buffer, and the measurement temperature was set to 25° C. Chips produced by immobilizing the antigen peptide by the amine coupling method to a Series S Sencor Chip CM5 (GE Healthcare), or alternatively, chips produced by allowing preliminarily biotinylated antigen peptides to interact with and immobilize onto a Series S Sensor Chip SA (certified) (GE Healthcare) were used. Antibodies of interest were captured onto an antigen peptide-immobilized chip, and allowed to interact to each FcγR diluted with running buffer. To regenerate and repeatedly use the chip, the antibodies captured on the chip were washed off by reacting 10 mM glycine-HCl, pH 1.5.

He_2aH/2b	Binder
0.54 ratio	B1
0.76 ratio	B2
0.45 ratio	B3
0.61 ratio	B4
0.7 ratio	B5
0.51 ratio	B6
0.73 ratio	B7
0.63 ratio	B8
0.74 ratio	B9
0.65 ratio	B10
0.29 ratio	B11
0.33 ratio	B12
0.78 ratio	B13
0.47 ratio	B14
0.59 ratio	B15
0.32 ratio	B16
0.46 ratio	B17
0.59 ratio	B18
0.48 ratio	B19

biological target: T3, FcγRIIIa extracellular domain with C-terminal His tag (human, UniProt P08637 17-208); assay: SPR (Biacore), antibody captured on antigen-peptide chip, FcγR analyte, relative binding
T3 construct: extracellular domain; also called 3a; FcgRIIIa
T3 sequence (P08637 17-208): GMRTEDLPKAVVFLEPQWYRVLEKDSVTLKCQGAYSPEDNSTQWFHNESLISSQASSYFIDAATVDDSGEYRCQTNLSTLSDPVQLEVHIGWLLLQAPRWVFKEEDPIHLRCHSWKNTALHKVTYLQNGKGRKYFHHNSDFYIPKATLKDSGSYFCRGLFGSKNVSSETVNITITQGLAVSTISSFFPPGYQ

He/Con_3a	Binder
105 % of GpH7-A5/GpH7-B3/GpL16-k0 (=100)	B20

biological target: T1, FcγRIIa H; assay: SPR (Biacore), captured antibody, FcγR analyte; relative to GpH7-A5/GpH7-B3/GpL16-k0 = 100
Description: as §1
(§2) The FcγR-binding activity of each antibody was assessed primarily using as an indicator the FcγR-binding activity and dissociation constant for FcγR.

He/Con_2aH	Binder
51 relative (control = 100)	B1
108 relative (control = 100)	B2
79.7 relative (control = 100)	B3
105 relative (control = 100)	B4
45.4 relative (control = 100)	B5
45.6 relative (control = 100)	B6
104 relative (control = 100)	B7
85.7 relative (control = 100)	B8
46.9 relative (control = 100)	B9
91.3 relative (control = 100)	B10
58.5 relative (control = 100)	B11
71.7 relative (control = 100)	B12
97.8 relative (control = 100)	B13
90 relative (control = 100)	B14
66.8 relative (control = 100)	B15
55.5 relative (control = 100)	B16
58.4 relative (control = 100)	B17
93.9 relative (control = 100)	B18
113 relative (control = 100)	B19

biological target: T2, FcγRIIb; assay: as above
Description: as §1, §2

He/Con_2b	Binder
94.7 relative (control = 100)	B1
142 relative (control = 100)	B2
177 relative (control = 100)	B3
172 relative (control = 100)	B4
65.1 relative (control = 100)	B5
89.4 relative (control = 100)	B6
142 relative (control = 100)	B7
137 relative (control = 100)	B8
63.1 relative (control = 100)	B9
140 relative (control = 100)	B10
199 relative (control = 100)	B11
219 relative (control = 100)	B12
126 relative (control = 100)	B13
193 relative (control = 100)	B14
113 relative (control = 100)	B15
172 relative (control = 100)	B16
127 relative (control = 100)	B17
160 relative (control = 100)	B18
235 relative (control = 100)	B19
